{"source": "the DeepSol protein solubility set"}
{"experiment": "soluble on expression in E. coli; label from the status in PepcDB or PDB records"}
{"sequence": "MTNLELSGSQSYLNDESTANLSSLAGKFLVQFWGVRGLIPTPSSNTSRYGGNTACVEMQVAGKRLIFDGGTGLRILGKAWQHLQQPLEAHLFFTNSQSNRIQGFPFFAPAFIAGNCFHIYGGAASNGASIKQCLCDQMLQPHFPYPLQVMQSELQFYPLTPDSEVKLDDVTIRTALINQTQRSIGYRVTWQEYSVAYVTDLNMSAEQGEREQVLQIIQDVDLLIANATYTPPTSHDHESVDLLWQAAVEMAQKAGVRKLIISHHHPDDHDDFLDQVEKEVQSTFSDALLACEGLALPVFLEHHHHHH", "soluble on expression in E. coli": "soluble"}
{"sequence": "MSLNRIILIGNGFDLAHGLPTRYEDFINWYWEKRVDSFIGNLTPISEDCLCSIKITSDNYNRCWNVFAFCLPKFFNKPSGKEIIDSIANDSKSFELSLSPFFFNICTCIETKGWVDIEKEYYDLLRNAIINPDNCNYTISEINKQLHYIQGLLAQYLSSITTDNIKCNKEIQRQIYGNIRKDDVSISQLQVYYDYVDHLIQQDNVYQQLLCRYGYESSDRHFMAEDIKQLRKQFVGSSEIEEIYLKDLIFPENIVLLNFNYTEVADKYGCLKVASTNHIHGDLNNPDSIIFGYGDELDEDYRDFLKQSDNECLRNIKSIKYLESGKYRNLLQFIESAPYQVYIMGHSCGNSDRTLLNTLFEHKNCVSIKPYYYQKDDGSDNYLEIAQNICRNFTDMKLMRDRVVNKMFCEPLPQYIKEGHHHHHH", "soluble on expression in E. coli": "soluble"}
{"sequence": "GIDPFTQRLNFGDDIPSALRIAKKKRWNSIEEKRISQENELHAYLSKLILAEKERELDDRVKQSDDSQNGGDISKMKSKHDKYLMDMDELFSQVDEKRKKREIPDYLCGKISFELMREPCITPSGITYDRKDIEEHLQRVGHFDPVTRSPLTQDQLIPNLAMKEVIDAFIQENGWVEDY", "soluble on expression in E. coli": "soluble"}
{"sequence": "SISTARVPADKPVRIAFSLNDASDDTPPEDSIPLVFPELDQQLQPLPPCHDSEESMEVFKQHCQIAEEYHEVKKEITLLEQRKKELIAKLDQAEKEKVDAAELVREFEALTEENRTLRLAQSQCVEQLEKLRIQYQKRQGSS", "soluble on expression in E. coli": "soluble"}
{"sequence": "MKEIKLILTDIDGVWTDGGMFYDQTGNEWKKFNTSDSAGIFWAHNKGIPVGILTGEKTEIVRRRAEKLKVDYLFQGVVDKLSAAEELCNELGINLEQVAYIGDDLNDAKLLKRVGIAGVPASAPFYIRRLSTIFLEKRGGEGVFREFVEKVLGINLEDFIAVIQ", "soluble on expression in E. coli": "soluble"}
{"sequence": "LSESDRGASCAPIGAIADAVKSGKVGSCVNNEYDVPGGKVEDFVSGRAYWSPSTGAHALYGRINARYSEMGGPQSWLGFPISSEFAIKDNARVVQFQNGNIYWSPQRGAIAVPKDIVDKWGEQQWENGFLGFPVAEAKEVAGGFIQEFEGGLVVRTKDNKNQWLRGEIAKKYREMKTAESELGFPVSDEIKINGGAFQQFEHGNIYWSAATGAHFIRKGDIFNTWGVKKWEQGELGFPVTDHTQIPAGGEEITFQHGKISQVNGVIREERR", "soluble on expression in E. coli": "not soluble"}
{"sequence": "MCLDVLIHYPQEKADEMISHLCSLAQSRIILSFAPKTCALTLLKKIGSFFPGPSKTTRAYLHREADVIKILESNGFAIQRKEFTKTRFYFSRILEATRSLEHHHHHH", "soluble on expression in E. coli": "not soluble"}
{"sequence": "MSLRAVVTMGHGDLDQLVLHPDWPRPDPEPGEVLIRVGACGLNNTDVNTRSGWYSKTVTDATTGGAFDEVGEDDPTWGGAPITFPRIQGADVCGTIVAVGAGVDAARIGERVITDGWLRDADAPEDMNKTGYFGSERNGGFAEYTTIPSSNALDVNSTLSDAELATFSCSYSTAEGMLTRARVTADDTVLIPGASGGVGGALVQLAKRRGARVIAIASEGKHSDVAALGPDMILPRAPAHLRSALGDERITVVADVVGGPYWPSLIDILERGGRYTCSGAIAGPMVSLDLRTFYLRDLTFTGSTVIDLEVMPNIVRYIEEGAIKPSLAATYPLEDLRAAQSAFIAKEHTGNIVVTEGHHHHHH", "soluble on expression in E. coli": "not soluble"}
{"sequence": "MTLSFDDAAATVKTLKTSPSNDELLKLYALFKQGTVGDNTTDKPGMFDLKGKAKWSAWDEKKGLAKDDAQKAYVALVEELIAKYGA", "soluble on expression in E. coli": "soluble"}
{"sequence": "MSAIDCIITAAGLSSRMGQWKMMLPWEQGTILDTSIKNALQFCSRIILVTGYRGNELHERYANQSNITIIHNPDYAQGLLTSVKAAVPAVQTEHCFLTHGDMPTLTIDIFRKIWSLRNDGAILPLHNGIPGHPILVSKPCLMQAIQRPNVTNMRQALLMGDHYSVEIENAEIILDIDTPDDFITAKERYTEILEHHHHHH", "soluble on expression in E. coli": "soluble"}
{"sequence": "GSHMNRFLTSIVAWLRAGYPEGIPPTDSFAVLALLCRRLSHDEVKAVANELMRLGDFDQIDIGVVITHFTDELPSPEDVERVRARLAAQGWPLDDVRDREEHA", "soluble on expression in E. coli": "soluble"}
